These results are taken from article PMC6261967.

Assay [1] has as its target the ribosome (40S + 60S subunits) (human (endogenous in HeLa)) (UniProt P62753). Nature of the assay: co-sedimentation; puromycin-treated crude ribosomal preparation resolved by sucrose-gradient centrifugation; ribosome fractions combined for western blot (Supplementary Fig. S1).
Assay [2] concerns the target 40S ribosomal subunit (human (endogenous in HeLa)) (UniProt P62753). The assay is described as follows: co-sedimentation; ribosome fractions from HeLa cells, first and second 10-40% sucrose gradient, 20 mM Tris-HCl pH 7.5, 500 mM KCl, 4 mM magnesium acetate, 2 mM DTT, 4 °C; fractions and the purified subunits blotted for PABP, without GST-Paip2 treatment.
The target of assay [3] is 60S ribosomal subunit (human (endogenous in HeLa)) (UniProt P40429). Described as above.

For “poly(A)-binding protein (PABP), endogenous in HeLa ribosome preparations (from UniProt P11940 1-636) (natural protein)”, the molar ratio of PABP to the ribosome (40S + 60S subunits) (western blot) in assay [1] amounted to 2. The molar ratio of subunit to PABP in the purified subunit (western blot) in assay [2] and in assay [3] was 10 throughout.
